Laboratory results: the supplement of paper PMC12783771
± gives the standard deviation of the averaged measurements.

B1: library; a variant is named by its letters at X, in order (parent)
chain: MNIQIGELAKRTACPVVTIRFYEQEGLLPPPGRSRGNFRLYGEEHVERLQFIRHCRSLDMPLSDVRTLLSYRKRPDQDCGEVXMLLDEHIRQVESRIGALLELKHHLVELREACSGARPAQSCGILQXLSXCVCXTRGTTAHXSD

Tests used:
[1] = variants of: B1; experiment: sfGFP reporter fluorescence (15 h) (µM FITC); higher = higher leak; details: library round: Round 2; ligand: none
Summary of the method: (§1)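 Values are endpoint sfGFP fluorescence given as µM FITC equivalents. Fluorescence was read at 485/528 nm on a Synergy Neo2, and FITC standard curves were prepared in 50 mM sodium borate pH 8.5. Reactions of 1 μL combined BL21 Star (DE3) PANOx-SP extract, pPbrR-sfGFP reporter, 30 μg/mL GamS and linear PbrR templates (PCR-made, Echo-normalized to 5 nM), with 1 µM lead chloride, 30 µM zinc acetate or no metal, for 15 hr at 30 °C.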

[2] = variants of: B1; experiment: sfGFP reporter fluorescence (15 h) (µM FITC); higher = stronger transcriptional activation; details: library round: Round 2
Summary of the method: as §1

| Variant | sfGFP reporter fluorescence [1] | sfGFP reporter fluorescence ([2]; ligand: 1 µM Pb) | sfGFP reporter fluorescence ([2]; ligand: 30 µM Zn) |
| --- | --- | --- | --- |
| MNIQIGELAKRTACPVVTIRFYEQEGLLPPPGRSRGNFRLYGEEHVERLQFIRHCRSLDLPLSDVRTLLSYRKRPDQDCGEVNMLLDEHIRQVESRIGALLELKHHLVELREACSGARPAQSCGILQTLSCCVCDTRGTTAHPSD [NTCDP M60L] | 0.222 ± 0.016 | 0.784 ± 0.021 | 2.43 ± 0.27 |
| MNIQIGELAKRTACPVVTIRFYEQEGLLPPPGRSRGNFRLYGEEHVERLQFIRHCRSLDMNLSKVRTLLSYRKRPDQDCGEVNMLLDEHIRQVESRIGALLELKHHCVELREACSGARPAQSCGILQTLSDCVCDTRGTTAHPSD [NTDDP P61N D64K L107C] | 2.26 ± 0.67 | 2.58 ± 0.67 | 3.04 ± 0.32 |
| MNIQIGELAKRTACPVVTIRFYEQEGLLPPPGRSRGNFRLYGEEHVERLQFIRHCRSLDMPLSDVRTLLSYRKRPDQDCGEVNMLLDEHIRQVESRIGALLELKHHCVELREACSGARPAQSCGILQTLSDCVCATRGTTAHPSD [NTDAP L107C] | 0.819 ± 0.064 | 1.7 ± 0.12 | 3.23 ± 0.041 |
| MNIQIGELAKRTACPVVTIRFYEQEGLLPPPGRSRGNFRLYGEEHVERLQFIRHCRSLDLNLSKVRTLLSYRKRPDQDCGEVNMLLDEHIRQVESRIGALLELKHHLVELREACSGARPAQSCGILQTLSDCVCATRGTTAHPSD [NTDAP M60L P61N D64K] | 0.878 ± 0.074 | 2.33 ± 0.17 | 3.33 ± 0.36 |
